Measured values from publication PMC2768378 (2009).

Target: H2A.Z-H2B (Saccharomyces cerevisiae, UniProt Q12692)
Experiment: relaxation dispersion NMR

Kd: ~200 nM
B1: Chz1 (protein)
chain: SDEAKEKRELESQKESSHNKSEKSVEPKPKRRRRRNYDDYDAEVAKEETKAKNGLTKSENNGTVEDSESDMDDAKLDALMGNEGEEEEDDLAEIDTSNIITSGRRTRGKVIDYKKTAEELDKKEPSTGSKDDVGYGEKEEDDEDEEDDDFKE
